The numbers were not newly measured in publication PMC3760146, which cites them from elsewhere.

pKd: −log10 of the molar value.

The target of this data set is Histone H4 K8ac peptide 1-12 (Homo sapiens) (UniProt P62805). In words: NMR titration.

Turning to P/CAF bromodomain (from UniProt Q92831), the negative logarithm of the Kd (pKd) was 3.46.
